Laboratory results from patent publication US20260098089A1 (KYMAB, published 2026).

Assays:
[1] = biological target: T1, Human CD7 on cells (CEM and other T-ALL cells, peripheral NK and T cells) (human, UniProt P09564 26-238); assay: cell-based or functional assay
T1 sequence: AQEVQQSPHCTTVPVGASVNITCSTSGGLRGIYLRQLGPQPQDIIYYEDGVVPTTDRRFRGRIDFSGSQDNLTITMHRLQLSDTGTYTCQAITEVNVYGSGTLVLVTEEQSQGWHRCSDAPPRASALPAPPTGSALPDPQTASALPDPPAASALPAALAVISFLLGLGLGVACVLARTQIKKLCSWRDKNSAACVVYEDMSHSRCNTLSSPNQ

[2] = biological target: T1, Human CD7 on cells (CEM and other T-ALL …); assay: cell-based or functional assay; remark: listed apart in the source
[3] = biological target: T2, Cynomolgus monkey (Macaca fascicularis) CD7 protein (soluble) (cynomolgus monkey (Macaca fascicularis)); assay: Affinity to soluble CD7 (biophysical summary; SPR)
T2 construct: also called Cynomolgus CD7; cynomolgus antigen
T2 chain: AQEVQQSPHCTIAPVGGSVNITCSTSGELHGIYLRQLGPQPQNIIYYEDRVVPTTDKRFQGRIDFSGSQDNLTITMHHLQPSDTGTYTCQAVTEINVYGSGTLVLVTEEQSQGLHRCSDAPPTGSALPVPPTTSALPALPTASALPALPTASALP

[4] = biological target: T3, Human CD7 protein (soluble) (human, UniProt P09564 26-180); assay: Affinity to soluble CD7 (biophysical summary; SPR)
T3 construct: also called hCD7; human antigen
T3 sequence: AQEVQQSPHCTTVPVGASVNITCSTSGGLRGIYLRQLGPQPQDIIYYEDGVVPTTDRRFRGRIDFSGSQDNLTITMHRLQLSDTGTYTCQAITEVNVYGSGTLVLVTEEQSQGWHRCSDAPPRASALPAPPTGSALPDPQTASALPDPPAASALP

[5] = biological target: T2, Cynomolgus monkey (Macaca fascicularis) …; assay: SPR, captured mAb, global fit 1:1 model
[6] = biological target: T3, Human CD7 protein (soluble); assay: SPR, captured mAb, global fit 1:1 model
[7] = biological target: T2, Cynomolgus monkey (Macaca fascicularis) …; assay: SPR, mAb captured, single concentration of cynomolgus CD7 protein as analyte

B1: 1741G09 E345R (antibody, V domains shown)
VH: EVQLVESGGGLVKPGGSLRLSCAASGFSFSVAWMSWVRQAPGKGLEWVGRIKRKTDGGTTDYAAPVKGRFIISRDDSIKALYLQMNSLKTEDTAVYYCTTDPLLRYSDWLSHSLMGDVWGQGTTVTVSS
VL: DIQMTQSPSSLSASVGDRVAITCRTSQNINNYLNWYQQKPGKAPKPLIYAASSLQSGVPSRFSGSGSGTDFTLTISTLHPEDFATYYCQQTYSIPLTFGGGTKVEIK
Question: With B1 as the binder, how does the “EC50, CDC assay on CEM cells” value [1] read?
Answer: 0.12 nM

Question: And the “Maximum killing, CDC assay on CEM cells” value [1]?
Answer: 99.5%

B2: 1741G09 HuIgG1 E430G C-term Lysine clipped, Phe variant of light chain (antibody, V domains shown)
VH: B1 VH
VL: DIQMTQSPSSLSASVGDRVAITCRTSQNINNYLNWYQQKPGKAPKPLIYAASSLQSGVPSRFSGSGSGTDFTLTISTLHPEDFATYYCQQTYSIPLTFGGGTKVEIKR
notes: also called 1741G09 E430G; G09 E430G
Question: How did the “CDC EC50; PDATLLAd2R, PDATALL12, PDTALL11 (intermediate to low CD7 expression)” value [2] turn out when B2 was run?
Answer: < 0.4 nM

Question: What about the “CDC EC50; PDTALL13, PDTALL18 (much low CD7 expression)” value [2] of the same binder?
Answer: < 0.6 nM

Question: And the “CDC EC50; PDTALL46 and PDTALLAd2R” value [2]?
Answer: ~0.35 nM

Question: What about the “CDC assay on isolated peripheral NK cells, EC50” value [2] of the same binder?
Answer: ~0.3 nM

Question: What about the Kd [3] of the same binder?
Answer: 0.15 nM

Question: And the Kd [4]?
Answer: 4.75 nM

B3: 1741G09 (antibody, V domains shown)
VH: B1 VH
VL: B1 VL
notes: also called 1741G9
Question: How did the Kd [5] turn out when B3 was run?
Answer: 0.145 nM

Question: And the kon [5]?
Answer: 424000 M⁻¹ s⁻¹

Question: What about the Kd [6] of the same binder?
Answer: 4.74 nM

Question: And the koff [6]?
Answer: 0.00192 s⁻¹

Question: What about the kon [6] of the same binder?
Answer: 416000 M⁻¹ s⁻¹

B4: 1730C02 E345R (antibody, human IgG1, V domains shown)
VH: EVQLVESGGGLVQLGGSLRLSCAASGLTFNNYAMSWVRQAPGKGLEWVSTISGSGGSTYYADSAKGRFTISRDNSKNTLYLQMNSLRAEDTAVYYCAKGGLLYFGEFHFDYWGQGTLVTVSS
VL: DIQMTQSPSSLSASVGDRVTIICRASQGISNYLAWFQQKPGKAPKSLIYAASSLQSGVPSKFSGSGSGTDFTLTISSLQPEDFATYYCQHYNSYPLTFGGGTKVEIK
Question: What does the source list for B4?
Answer: EC50, CDC assay on CEM cells [1]: 0.00037 nM; Maximum killing, CDC assay on CEM cells [1]: 93.2%

B5: 1734F05 E345R (antibody, V domains shown)
VH: EVQLVESGGGLVQPGGSLRLSCAASGFTFSRYAMSWVRQAPGKGLEWVSSISASGATTFYADPVKGRFTISRDNSKKTLYLQMNSLRAEDTAVYYCAKDQDFDILTGYLNWFDPWGQGTLVTVSS
VL: EIVLTQSPATLSLSPGERVILSCRVSQSVSSYLAWYQQKPGQAPRLLIYDTSNRATGIPARFSGSGSGTDFTLTISSLEPEDFAVYYCQQRRNWPLTFGGGTKVEIK
Question: Which results are given for B5?
Answer: EC50, CDC assay on CEM cells [1]: 1.16 nM; Maximum killing, CDC assay on CEM cells [1]: 100%

B6: 1734F05 (antibody, V domains shown)
VH: B5 VH
VL: B5 VL
Question: For B6, which Kd [5] is on record?
Answer: 3.9 nM

Question: What about the koff [5] of the same binder?
Answer: 0.000642 s⁻¹

Question: And the kon [5]?
Answer: 165000 M⁻¹ s⁻¹

Question: What about the Kd [6] of the same binder?
Answer: 0.98 nM

Question: What about the koff [6] of the same binder?
Answer: 0.000356 s⁻¹

Question: What about the kon [6] of the same binder?
Answer: 369000 M⁻¹ s⁻¹

B7: 1741E04 E345R (antibody, human IgG1, V domains shown)
VH: EVQLVESGGGLVKPGGSPRLSCAAYGVTFSNAWMSWVRQAPGKGLEWVGRIKSKTDGGTTDYAAPVKGRFTISRDDSKNTLYLQMNSLKTEDTAVYYCTIEAVAGHFDYWGQGTLVTVSS
VL: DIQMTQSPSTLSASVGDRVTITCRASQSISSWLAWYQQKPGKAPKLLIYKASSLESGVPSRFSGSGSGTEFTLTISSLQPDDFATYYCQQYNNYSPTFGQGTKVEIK
Question: Does B7 bind [7]?
Answer: no binding

Question: And the “EC50, CDC assay on CEM cells” value [1]?
Answer: 0.12 nM

Question: And the “Maximum killing, CDC assay on CEM cells” value [1]?
Answer: 99.8%
